We go through 1 molecule from patent publication US20140017242A1, “ANTI-BRADYKININ B2 RECEPTOR (BKB2R) MONOCLONAL ANTIBODY” (Diamedica, Inc., priority 2010, published 2014).

Assay [1] addresses T1, human BKB2R-derived epitope peptide, SE ID NO:73 (Homo sapiens, UniProt P30411).
T1 construct: purchased Biosyn, Lewisville, Tex
The assay is described as follows: ForteBio Octet binding kinetics to the BKB2R epitope peptide. As to the method: Proteins corresponding to all combinations of humanized or chimeric (5F12G1 VH and VL on human IgG2 backbone) antibodies were tested for binding to the human BKB2R-derived epitope peptide, SE ID NO:73.
A ForteBio (Menlo Park, Calif., USA) Octet® platform was used to analyze the binding affinities and binding characteristics of the humanized monoclonal antibodies to the peptide epitope (SEQ ID NO:73) and compared to the original mouse monoclonal 5F12G1. This platform employed label-free technology for measuring biomolecular interactions by optical analysis of the interference pattern of white light reflected from two surfaces: a layer of immobilized protein on the biosensor tip, and an internal reference layer. Any change in the number of molecules bound to the biosensor tip caused a shift in the interference pattern that was measured in real-time. Binding specificity, and rates of association and dissociation were monitored.
For the Octet study, antibodies were analyzed by kinetic titration of the antibodies. Antibodies were prepared in kinetic buffer (0.001 M phosphate buffered saline (NaCl 0.0138 M; KCl-0.00027 M); pH 7.4, at 25° C., 0.1 mg/ml BSA, 0.002% Tween and 0.005% Sodium Azide) followed by 1:2 serial dilutions.
Sensor Prep: Streptavidin biosensors (FortéBio Inc, Menlo Park, Calif.) were coated by incubation in a solution containing a peptide ([…]-PEG-biotin) (Biosyn, Lewisville, Tex.) at 50 μg/ml (300 seconds/1000 rpm shaking). 96 well half-volume plates were used for testing. 90 μl of sample was plated per well. Sensors were allowed to equilibrate to baseline in kinetic buffer (60 seconds/1000 rpm). The sensors were then placed into the various antibody dilutions to allow binding (association) to the probe for 500 seconds/1000 rpm, and measurements were taken. The sensors were then moved into kinetic buffer without antibody for dissociation (500 seconds/1000 rpm), and measurements were taken. Octet system software calculated kinetic constants for on rate/off rate/affinity.
[…] […] Each concentration was tested twice. The HC and LC represented the mouse original 5F12G1 VH and VL sequences.
Background: In BLI a coated tip is dipped into the sample, and binding shifts an interference pattern.

In assay [2] the test system is ZDF fa/fa rats. As to the kind of experiment: Oral glucose tolerance test in ZDF fa/fa rats, humanized mAbs. The note with it: 0.2 mg/kg s.c.; order: H38/L39, H37/L38, L2/H2, H38/L38, H37/L37, H38/L38, H39/137 [sic], H39/L39, H37/L37, H39/L38, H37/L39, L1/H1. It is filed as in vivo, rat. From the text: This example describes evaluation of mouse mAb 5F12G1 and its twelve humanized clones in Zucker Diabetic fatty (ZDF fa/fa) rats for effects on insulin sensitivity in animals. Zucker Diabetic Rats develop symptoms similar to type 2 diabetes and are genetically resistant to insulin. […] Therefore, the Zucker rat is a good model to test the ability of the monoclonal antibody to increase insulin sensitivity, especially in an OGTT.
Male ZDF fa/fa rats were obtained from Charles River (Kingston, ON). Upon arrival, rats were ten weeks of age. The rats were housed individually per cage in a room with a photo cycle of 12 hours of light and 12 hours of dark and an ambient temperature of 70-72° F. and fed on regular rodent diet and water ad libitum. After seven days of acclimatization, rats were grouped into fourteen groups of three rats per group (Table 10).
Oral Glucose Tolerance Test. An oral glucose tolerance test (OGTT) was performed on overnight fasted (16 hours) rats. Rats received subcutaneously administered humanized mAbs, mouse mAb 5F12G1 (positive control) and PBS (vehicle control) at a dose of 0.2 mg/kg body weight, thirty minutes prior to glucose administration. D-Glucose was prepared in distilled water and administered orally at 2 g/kg body weight. Blood glucose levels were measured before administration of humanized mAbs, 5F12G1 or vehicle (t=−30 minutes) and just before glucose loading (0 minute), and at timepoints of 30, 60, 90 and 120 minutes, using Accu-chek™ glucose meter.

Usually kon stands for a measure of how fast the partners come together.

B1: H38/L39: humanized anti-BKB2R mAb, heavy chain H38 (SEQ ID NO:6), light chain L39 (SEQ ID NO:12) (antibody, V domains shown)
VH: EVQLLESGGGLVQPGGSLKLSCAVSGFTFSDYWMSWVRQAPGKGLEWVSEIRLKSDNYATHYADSVKGRFTISRDDSKNTLYLQMNSLRAEDTAVYYCTRDYYAMEYWGQGTLVTVSS
VL: DVVMTQTPLSLSVTPGQPASISCKSSQTIVHSNGKTYLEWYLQKPGQSPQLLIYKVSNRFSGVPDRFSGSGSGTDFTLKISRVEAEDVGVYYCFQASHVPYTFGQGTKLEIK
modifications: Humanized H38 Heavy Chain Variable Region VH; Humanized L39 Light Chain Region VL
For B1, in assay [1] (Conc. 500 nM), the “kdis” value is 106 s⁻¹ and the “kon” value is 1.14e+09 M⁻¹ s⁻¹. The “binding compared with the original mouse monoclonal antibody” value in assay [1] (Octet, epitope peptide) is on record as “stronger binding (lower KD)”. The “order of effect on the decrease in AUC of blood glucose” value in assay [2] was “higher”.
